Where two headings read alike, the source gives them in different places.
Experiments:
[1] = target: T1, PACAP38 (UniProt P18509 132-169, biotinylated in the ELISAs); assay: cell-based or functional assay
T1 peptide (looked up): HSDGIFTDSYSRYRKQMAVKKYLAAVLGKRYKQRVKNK

[2] = target: T2, PACAP27 (UniProt P18509 132-158, biotinylated in the ELISAs); assay: ELISA, biotinylated peptide on streptavidin plate
T2 peptide (looked up): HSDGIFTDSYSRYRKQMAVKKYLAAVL
Experimental: (§1) In this test example, the abilities of the chimeric antibodies and humanized antibodies of C1 #, C9 #, C21 #, and C28 #to bind to human CGRP and rat CGRP were assessed using ELISAs. Plates were coated with […] human CGRP and rat CGRP, respectively, and blocked, and the antibodies, serially diluted, were then added. The plates were incubated for 1 h and washed, and a horseradish peroxidase-labeled anti-human Fc secondary antibody was then added. After incubation, color development was performed. […] The plates were incubated for 1 h and washed, and the antibodies, serially diluted, were then added. The plates were incubated for 1 h and washed, and a horseradish peroxidase-labeled streptavidin secondary antibody was then added. After incubation, color development was performed.

[3] = target: T1, PACAP38; assay: ELISA, biotinylated peptide on streptavidin plate
Experimental: as §1

[4] = target: T1, PACAP38; assay: competition ELISA, biotinylated PACAP38 to coated VPAC1-Fc
Experimental: (§2) The plates were incubated for 1 h and washed, and a horseradish peroxidase-labeled streptavidin secondary antibody was then added. After incubation, color development was performed.

[5] = target: T1, PACAP38; assay: competition ELISA, biotinylated PACAP38 to coated PAC1-Fc
Experimental: as §2

[6] = target: T1, PACAP38; assay: competition ELISA, biotinylated PACAP38 to coated VPAC2-Fc
Experimental: as §2

[7] = target: T3, VIP (UniProt P01282 125-152, biotinylated in the ELISA); assay: ELISA, biotinylated VIP on streptavidin plate
T3 construct: also called vasoactive intestinal peptide
T3 peptide (looked up): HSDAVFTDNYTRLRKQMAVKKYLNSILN
Experimental: as §1

[8] = target: T1, PACAP38; assay: cell-based or functional assay
[9] = target: T2, PACAP27; assay: ELISA, antibody on coated anti-human Fc, biotinylated peptide
Experimental: (§3) Plates were coated with 1 μg/mL anti-human Fc and blocked, and the antibodies, serially diluted, were added. […] The plates were incubated for 1 h and washed, and a horseradish peroxidase-labeled streptavidin secondary antibody was then added. After incubation, color development was performed.

[10] = target: T1, PACAP38; assay: as above
Experimental: as §3

[11] = target: T4, rat CGRP (rat, UniProt P01256 83-119); assay: SPR, Biacore 8K, antibody captured on Protein A chip, 1:1 model
T4 peptide (looked up): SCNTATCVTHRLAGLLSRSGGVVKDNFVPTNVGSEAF
Experimental: A Protein A biosensor chip was used to affinity-capture IgG, and a molecule sample was then allowed to flow through the surface of the chip. Reaction signals were detected in real time using a Biacore 8K system to obtain association and dissociation curves. After the dissociation in each experimental cycle was complete, the biosensor chip was washed and regenerated 3 times with 50 mM NaOH. Data fitting was performed using a 1:1 model.

[12] = target: CGRP; assay: cell-based or functional assay
[13] = target: T5, human CGRP (human, UniProt P06881 83-119); assay: SPR, Biacore 8K, 25 C, biotinylated antibody on SA chip, 1:1 model
T5 peptide (looked up): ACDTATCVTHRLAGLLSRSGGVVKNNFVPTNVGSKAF
Experimental: First, the test antibodies ([…] for the mAbs and 4 μg/mL for the diabodies), biotinylated (indicated by Biotin-), were each coupled onto an SA biosensor chip. Then samples of the antigen human CGRP were sequentially injected in ascending order for 180 s, followed by dissociation. After the test was finished, fitting was performed using a 1:1 binding model.

| Binder | IC50, inhibition of cAMP production in SH-SY5Y cells [1] | EC50 [2] | EC50 [3] | IC50 [4] | IC50 [5] | IC50 [6] | binding result [7] | IC50, inhibition of cAMP production in SH-SY5Y cells [8] | EC50 [9] | EC50 [10] | Kd [11] | koff [11] | kon [11] | IC50, inhibition of cAMP production in SK-N-MC cells [12] | Kd [13] | koff [13] | kon [13] |
| --- | --- | --- | --- | --- | --- | --- | --- | --- | --- | --- | --- | --- | --- | --- | --- | --- | --- |
| P14H1L2 (antibody, human IgG1, kappa, V domains shown) VH: EVQLVESGGGLVKPGGSLRLSCAASGFAFNNYDMSWVRQAPGKGLEWVATITGGGSYTWYPDSVKGRFTISRDNAKNSLYLQMNSLRAEDTAVYYCARLTGYDQAGAMDYWGQGTTVTVSS VL: DIVLTQSPDSLAVSLGERATINCKASQSVDYDGDSYMTWYQQKPGQPPKLLIYAASNLDSGIPDRFSGSGSGTDFTLTISSLQAEDVAVYYCQQSNEDPWTFGGGTKVEIKR | 2.37 nM | 0.19 nM | 0.09 nM | 0.19 nM | 0.45 nM | 0.18 nM | no binding |  |  |  |  |  |  |  |  |  |  |
| P14H1L1 (antibody, human IgG1, kappa, V domains shown) VH: EVQLVESGGGLVKPGGSLRLSCAASGFAFNNYDMSWVRQAPGKGLEWVATITGGGSYTWYPDSVKGRFTISRDNAKNSLYLQMNSLRAEDTAVYYCARLTGYDQAGAMDYWGQGTTVTVSS VL: DIVMTQSPDSLAVSLGERATINCKASQSVDYDGDSYMTWYQQKPGQPPKLLIYAASNLDSGVPDRFSGSGSGTDFTLTISSLQAEDVAVYYCQQSNEDPWTFGGGTKVEIKR |  | 0.19 nM | 0.11 nM | 0.2 nM | 0.51 nM | 0.21 nM | no binding |  |  |  |  |  |  |  |  |  |  |
| P14H2L3 (antibody, human IgG1, kappa, V domains shown) VH: EVQLVESGGGLVQPGGSLRLSCAASGFAFNNYDMSWVRQAPGKGLEWVATITGGGSYTWYPDSVKGRFTISRDNAKNSLYLQMNSLRAEDTAVYYCARLTGYDQAGAMDYWGQGTTVTVSS VL: DIVLTQSPDSLAVSLGERATINCKASQSVDYDGDSYMTWYQQKPGQPPKLLIYAASHLDSGIPDRFSGSGSGTDFTLTISSLQAEDVAVYYCQQSNEDPWTFGGGTKVEIKR | 4.02 nM | 0.2 nM | 0.09 nM | 0.58 nM | 0.67 nM | 0.4 nM | no binding | 2.4 nM | 0.16 nM | 0.13 nM |  |  |  |  |  |  |  |
| CP-3 (bispecific antibody, human IgG1, kappa, Format 1+1, anti-PACAP Fab (P14H2L3) and anti-CGRP Titin/Obscurin Fab (C28H6L1), knob-into-hole IgG1 (YTE) Fc; also called Biotin-CP-3) heavy 1: EVQLVESGGGLVQPGGSLRLSCAASGFAFNNYDMSWVRQAPGKGLEWVATITGGGSYTWYPDSVKGRFTISRDNAKNSLYLQMNSLRAEDTAVYYCARLTGYDQAGAMDYWGQGTTVTVSSASTKGPSVFPLAPSSKSTSGGTAALGCLVKDYFPEPVTVSWNSGALTSGVHTFPAVLQSSGLYSLSSVVTVPSSSLGTQTYICNVNHKPSNTKVDKKVEPKSCDKTHTCPPCPAPELLGGPSVFLFPPKPKDTLYITREPEVTCVVVDVSHEDPEVKFNWYVDGVEVHNAKTKPREEQYNSTYRVVSVLTVLHQDWLNGKEYKCKVSNKALPAPIEKTISKAKGQPREPQVYTLPPCRDELTKNQVSLWCLVKGFYPSDIAVEWESNGQPENNYKTTPPVLDSDGSFFLYSKLTVDKSRWQQGNVFSCSVMHEALHNHYTQKSLSLSPGK light 1: DIVLTQSPDSLAVSLGERATINCKASQSVDYDGDSYMTWYQQKPGQPPKLLIYAASHLDSGIPDRFSGSGSGTDFTLTISSLQAEDVAVYYCQQSNEDPWTFGGGTKVEIKRTVAAPSVFIFPPSDEQLKSGTASVVCLLNNFYPREAKVQWKVDNALQSGNSQESVTEQDSKDSTYSLSSTLTLSKADYEKHKVYACEVTHQGLSSPVTKSFNRGEC heavy 2: EVQLVQSGAEVKKPGASVKVSCKASGYTFTDYYMNWVRQAPGQRLEWMGDINPNTGVTTYNQKFKGRVTITVDKSASTAYMELSSLRSEDTAVYYCASIIIVPDYFDYWGQGTTVTVSSGGGGSGIPPKIECLPIDISIDEGKVLTVASAFTGEPTPEVTWSTGGRKIHSQEQGRFHIENTDDSTTLTIKDVQKQDGGLYTLTLRNEFGSDSATVNIHIRSIDKTHTCPPCPAPELLGGPSVFLFPPKPKDTLYITREPEVTCVVVDVSHEDPEVKFNWYVDGVEVHNAKTKPREEQYNSTYRVVSVLTVLHQDWLNGKEYKCKVSNKALPAPIEKTISKAKGQPREPQVCTLPPSRDELTKNQVSLSCAVKGFYPSDIAVEWESNGQPENNYKTTPPVLDSDGSFFLVSKLTVDKSRWQQGNVFSCSVMHEALHNHYTQKSLSLSPGK light 2: DIQMTQSPSSVSASVGDRVTITCKASQNVGSNVAWYQQKPGKSPKALIYSASYRYSGVPSRFSGSGSGTDFTLTISSLQPEDFATYYCQQYNSYPYTFGGGTKVEIKGGGGSSGAPRFLTRPKASVVSVGKDATLSCQIVGNPFPQVSWEKDKQPVTAGVRFRLAQDGDLYRLKILDLQLSDSGQYVCRARNAHGEAFACLGLQVDAEA |  |  |  |  |  |  |  | 11 nM | 0.33 nM | 0.22 nM | 0.0897 nM | 0.000301 s⁻¹ | 3.35e+06 M⁻¹ s⁻¹ | 5.79 nM | 0.00764 nM | 3.31e-05 s⁻¹ | 4.34e+06 M⁻¹ s⁻¹ |
| P14#-CHI (antibody, human IgG1, kappa, V domains shown, chimeric: murine variable regions fused to human constant regions; also called P14#-CH1) VH: DVKLVESGGGLVKPGGSLKVSCAASGFAFNNYDMSWVRQTPEKRLDWVATITGGGSYTWYPDSVKGRFTISRDNARNTLFLQMSSLRSEDTALYYCARLNGYDQAGAMDYWGQGTSVTVSS VL: not shown | 1.46 nM | 0.14 nM | 0.09 nM | 0.27 nM | 0.48 nM | 0.23 nM | no binding |  |  |  |  |  |  |  |  |  |  |
